Values of other authors in PMC1562422.
pKd: −log10 of the molar value.

Key:
[1] = target: IL2 receptor β chain (Homo sapiens) (UniProt P14784); assay: SPR
[2] = target: IL2 receptor γ chain (Homo sapiens) (UniProt P31785)
[3] = target: IL2 receptor α chain (Homo sapiens) (UniProt P01589); assay: ITC
[4] = target: IL2 receptor β chain (Homo sapiens) (UniProt P14784); assay: ITC

Sequence of UniProt P14784 (P14784 27-240): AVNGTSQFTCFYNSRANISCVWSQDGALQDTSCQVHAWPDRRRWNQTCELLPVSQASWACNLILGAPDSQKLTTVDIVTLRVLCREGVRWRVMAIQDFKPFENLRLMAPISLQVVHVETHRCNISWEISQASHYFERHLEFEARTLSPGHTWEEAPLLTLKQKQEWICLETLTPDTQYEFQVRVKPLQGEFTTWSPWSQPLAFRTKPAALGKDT
Sequence of IL2 (P60568 21-153): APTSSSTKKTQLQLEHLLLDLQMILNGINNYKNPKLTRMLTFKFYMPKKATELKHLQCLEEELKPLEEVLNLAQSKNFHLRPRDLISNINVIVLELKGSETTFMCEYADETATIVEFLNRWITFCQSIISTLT
Sequence of UniProt P31785 (P31785 23-262): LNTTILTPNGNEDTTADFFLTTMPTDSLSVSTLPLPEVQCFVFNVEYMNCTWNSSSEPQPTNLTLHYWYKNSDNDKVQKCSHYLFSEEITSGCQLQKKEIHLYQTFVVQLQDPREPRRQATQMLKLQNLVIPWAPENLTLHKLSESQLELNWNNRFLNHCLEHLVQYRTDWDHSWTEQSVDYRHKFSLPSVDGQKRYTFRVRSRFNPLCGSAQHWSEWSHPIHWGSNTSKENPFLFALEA

Row | pKd [1] | pKd [2] | pKd [3] | pKd [4] | Substance
1 | 6.35 | < 3.15 | 8.00 | 6.84 | IL2 (from UniProt P60568)
2 |  |  |  | 6.56 | IL2 receptor α chain (from UniProt P01589)
